Like-named read-outs stand apart in the source and are kept apart here. Starred links: 1 amine or outer side, 2 acyl side, 3 side chain; linkers in the order of their positions; H or OH if unused. Non-standard residues stand in square brackets, D forms with d. Residues, ends and D or L forms follow the SMILES beside them. *: point of attachment. DOTA = O=C(O)CN1CCN(CC(=O)O)CCN(CC(=O)*)CCN(CC(=O)O)CC1; d(γGlu) = O=C(O)[C@@H](CCC(=O)[*:2])N[*:1]; 1Nal = N[C@@H](Cc1cccc2ccccc12)C(=O)O; NMeNle = CCCC[C@H](NC)C(=O)O; PEG4 = NCCOCCOCCOCCOCCC(=O)O
Legend:
CCK-2R [1] = target: T1, CCK-2R (Rattus norvegicus, UniProt P30553); test: Determination of IC50: CCK-2R affinity on AR4-2J cells, competition with [^177Lu]Lu-DOTA-PP-F11N; assay type: binding; details: AR4-2J cells
T1 construct: The CCK-2R expressing rat pancreatic tumor cells AR4-2J; host or cells: AR4-2J rat pancreatic tumor cells
T1 sequence (P30553 1-452): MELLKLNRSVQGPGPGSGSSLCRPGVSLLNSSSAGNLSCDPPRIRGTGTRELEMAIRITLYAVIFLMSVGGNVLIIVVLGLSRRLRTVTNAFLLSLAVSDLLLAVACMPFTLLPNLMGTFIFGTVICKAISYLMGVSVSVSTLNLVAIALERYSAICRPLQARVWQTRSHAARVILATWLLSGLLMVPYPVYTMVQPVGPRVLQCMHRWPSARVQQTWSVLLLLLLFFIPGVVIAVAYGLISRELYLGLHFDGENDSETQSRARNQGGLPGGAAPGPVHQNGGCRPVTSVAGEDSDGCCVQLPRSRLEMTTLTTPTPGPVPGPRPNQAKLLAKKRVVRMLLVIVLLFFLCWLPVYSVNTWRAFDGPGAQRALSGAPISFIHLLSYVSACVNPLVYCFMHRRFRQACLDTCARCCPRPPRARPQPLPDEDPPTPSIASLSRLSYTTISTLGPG
Procedure, shortened: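 Competitive displacement of 0.3 pmol/well [177Lu]Lu-DOTA-PP-F11N by compounds (10^-10 to 10^-4 M) on AR4-2J cells in BSA-supplemented medium, 3 h at 37 °C. Free label was collected from medium plus PBS rinse, and cell-bound label was recovered with 1 M NaOH, both measured by γ-counter. Each IC50 was determined twice, in triplicate.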

[2] = n-Octanol-PBS distribution coefficient (logD7.4); assay type: physicochemical; details: for logD7.4 (n ≥ 5), ^67Ga-labeled: pH = 7.4, ^67Ga-labeled; for logD7.4 (n ≥ 5), ^177Lu-labeled: pH = 7.4, ^177Lu-labeled
Protocol: Approximately 1 MBq of the labeled tracer was dissolved in 1 mL of a 1/1 mixture (v/v) of phosphate buffered saline (PBS, pH = 7.4) and n-octanol in an Eppendorf tube (1.5 mL). After vigorous mixing of the suspension for 3 min at rt, the vial was centrifuged at 9,000 rpm for 5 min (Biofuge 15, Heraeus Sepatech, Osterode, Germany) and 200 µL aliquots of both layers were measured in a γ-counter. The experiment was repeated at least five times.

[3] = target: T2, Human serum albumin (HSA) (Homo sapiens, UniProt P02768); test: Determination of HSA binding on a Chiralpak HSA column; assay type: in vitro ADME
T2 construct: purchased Daicel, Tokyo, Japan H13H-2433
T2 sequence (P02768 25-609): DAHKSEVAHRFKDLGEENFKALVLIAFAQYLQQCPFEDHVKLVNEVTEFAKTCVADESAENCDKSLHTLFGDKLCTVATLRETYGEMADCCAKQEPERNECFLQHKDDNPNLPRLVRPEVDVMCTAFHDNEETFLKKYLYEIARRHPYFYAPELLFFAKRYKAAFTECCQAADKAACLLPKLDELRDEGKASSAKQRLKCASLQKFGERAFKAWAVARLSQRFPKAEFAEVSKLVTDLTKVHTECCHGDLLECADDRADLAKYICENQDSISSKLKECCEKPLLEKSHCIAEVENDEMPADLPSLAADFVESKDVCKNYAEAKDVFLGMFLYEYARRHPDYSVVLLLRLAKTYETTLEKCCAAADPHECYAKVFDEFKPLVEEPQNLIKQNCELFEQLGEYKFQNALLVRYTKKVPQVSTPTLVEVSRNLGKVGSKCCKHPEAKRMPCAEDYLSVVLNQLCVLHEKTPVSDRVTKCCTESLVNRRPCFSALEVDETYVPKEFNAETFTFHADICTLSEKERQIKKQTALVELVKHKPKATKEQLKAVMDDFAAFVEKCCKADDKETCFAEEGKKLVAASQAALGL
Protocol: Human serum albumin (HSA) binding of the CCK-2R-targeted compounds was determined as reported by Valko et al., using a Chiralpak HSA column (50 x 3 mm, 5 µm, H13H-2433, Daicel, Tokyo, Japan) at a constant flow rate of 0.5 mL/min at rt. Therefore, an aq. solution of NH4OAc (pH = 6.9, 50 mM) as mobile phase A and isopropanol as mobile phase B were freshly prepared. In order to calibrate the column prior to the experiments, the retention times of nine reference substances with a HSA binding in the range of 13 to 99% were determined using a gradient of 100% A (0 to 3 min), followed by 80% A (3 to 40 min). Furthermore, all substances tested, were dissolved in a mixture (1/1, v/v) of A and B reaching a final concentration of 0.5 mg/mL. The HSA binding of all rhCCK ligands tested, was determined using the same gradient as for the calibration probes. The non-linear regression of the calibration experiments and the CCK-2R ligands (Fig. 29) was established using the OriginPro 2016G software (Northampton, United States).

[4] = Biodistribution in AR4-2J tumor-bearing CB17-SCID mice; assay type: in vivo; details: female, CB17-SCID, mouse, in vivo, iv, 100 pmol, total radioactivity
Protocol: (§1) All animal experiments were conducted in accordance with general animal welfare regulations in Germany (German animal protection act, in the edition of the announcement, dated May 18th, 2006, as amended by Article 280 of June 19th 2020, approval no. ROB-55.2-1-2532.Vet_02-18-109 by the General Administration of Upper Bavaria) and the institutional guidelines for the care and use of animals. CB17-SCID mice of both genders (Charles River Laboratories International Inc., Sulzfeld, Germany) were let to acclimate at the in-house animal facility at least for one week before inoculation was performed. To establish tumor xenografts, AR4-2J cells (5.0 × 10^6 cells per 200 µL) were suspended in a 1/1 mixture (v/v) of Dulbecco modified Eagle medium / Nutrition Mixture F-12 with Glutamax-I (1/1) and Cultrex® Basement Membrane Matrix Type 3 (Trevigen, Gaithersburg, MD, USA) and inoculated subcutaneously onto the right shoulder of 6-10 weeks old CB17-SCID mice (Charles River, Sulzfeld, Germany). Mice were used for experiments when tumors had grown to a volume of 150-300 mm^3 (1-2 weeks after inoculation). Exclusion criteria for animals from an experiment were either a weight loss higher than 20%, a tumor size above 1,500 mm^3, an ulceration of the tumor, a respiratory distress or a change of behavior. None of these criteria applied to any animal from the experiment. Neither randomization nor blinding was applied in the allocation of the experiments. Health status is SPF according to FELASA.
(§2) Approximately 1-5 MBq (100 pmol) of the radiolabeled minigastrin analogues were injected into the tail vein of AR4-2J tumor-bearing female CB17-SCID mice and sacrificed at 1 to 24 h post injection (n = 4-5). Selected organs were removed, weighted and measured in a γ-counter.

CCK-2R [5] = test: Competition studies in AR4-2J tumor-bearing CB17-SCID mice; assay type: in vivo; details: co-administration of excess unlabeled competitor (40 nmol), 24 h p.i.
Protocol: For competition studies, the radiolabeled compound (approx. 1-5 MBq, 100 pmol) was co-injected with [^natLu]Lu-DOTA-MGS5 (40 nmol) into the tail vein of AR4-2J tumor-bearing CB17-SCID mice and sacrificed at 1 to 24 h post injection (n = 2). Selected organs were removed, weighted and measured in a γ-counter.

[6] = tested on: AR4-2J tumor-bearing CB17-SCID mice; test: Biodistribution in AR4-2J tumor-bearing CB17-SCID mice; assay type: in vivo; details: 24 h p.i.
Protocol: as §1, §2

[7] = ^natCu-labeled, read-out: IC50 [nM] (n = 3), ^natCu-labeled
[8] = ^natGa-labeled, read-out: IC50 [nM] (n = 3), ^natGa-labeled
[9] = ^natLu-labeled, read-out: IC50 [nM] (n = 3), ^natLu-labeled

Structure (SMILES) | IC50 (CCK-2R [1]; [7]) [nM] | IC50 (CCK-2R [1]; [8]) [nM] | IC50 (CCK-2R [1]; [9]) [nM] | logD7.4 (n ≥ 5), ^64Cu-labeled ([2]; pH = 7.4, ^64Cu-labeled) | logD7.4 (n ≥ 5), ^67Ga-labeled [2] | logD7.4 (n ≥ 5), ^67Ga-labeled ([2]; listed as [^67Ga]Ga-DOTA-CCK-66) | logD7.4 (n ≥ 5), ^177Lu-labeled [2] | HSA binding [%] [3] [%] | HSA binding [%], ^natCu-labeled [3] [%] | HSA binding [%], ^natGa-labeled [3] [%] | HSA binding [%], ^natLu-labeled [3] [%] | tissue to tissue ratio at 24 h [4] | tissue uptake at 24 h [4] [%ID/g] | activity levels in stomach and tumor in competition studies (CCK-2R specificity) (CCK-2R [5]) | tissue uptake at 24 h ([4]; 24 h p.i., read-out: activity levels in the tumor) [%ID/g] | activity levels in the tumor, fold higher than those of [^177Lu]Lu-DOTA-PP-F11N [6]
CCCC[C@@H](C(=O)N[C@@H](CC(=O)O)C(=O)N[C@@H](Cc1cccc2ccccc12)C(N)=O)N(C)C(=O)[C@H](Cc1c[nH]c2ccccc12)NC(=O)CCOCCOCCOCCOCCNC(=O)CC[C@@H](NC(=O)CN1CCN(CC(=O)O)CCN(CC(=O)O)CCN(CC(=O)O)CC1)C(=O)O [DOTA-CCK-66, DOTA-γ-glu-(PEG)3-Trp-(N-Me)Nle-Asp-1-Nal-NH2] ({DOTA-d(γGlu)-PEG4}-W[NMeNle]D[1Nal]-NH2) | 4.2 ± 0.5 | 5 ± 0.5 | 5.1 ± 0.5 | −2.64 ± 0.04 | −3.01 ± 0.07 | < -3 | −2.60 ± 0.07 | 61.5 | 61.5 | 53.8 | 69.1 | 2010 ± 469 | 8.56 ± 1.08 | significantly decreased activity levels in both stomach and tumor | – | –
CCCC[C@H](NC(=O)[C@H](Cc1c[nH]c2ccccc12)NC(=O)CNC(=O)[C@H](Cc1ccc(O)cc1)NC(=O)[C@H](C)NC(=O)CC[C@@H](NC(=O)CC[C@@H](NC(=O)CC[C@@H](NC(=O)CC[C@@H](NC(=O)CC[C@@H](NC(=O)CC[C@@H](NC(=O)CC[C@@H](NC(=O)CC[C@@H](NC(=O)[C@@H](CNC(=O)c1ccc([Si](F)(C(C)(C)C)C(C)(C)C)cc1)NC(=O)CN1CCN(CC(=O)O)CCN(CC(=O)O)CCN(CC(=O)O)CC1)C(=O)O)C(=O)O)C(=O)O)C(=O)O)C(=O)O)C(=O)O)C(=O)O)C(=O)O)C(=O)N[C@@H](CC(=O)O)C(=O)N[C@@H](Cc1ccccc1)C(N)=O [DOTA-MG-SiFA-23, DOTA-dap(SiFA)-(γ-glu)8- Ala-Tyr-Gly-Trp-Nle-Asp-Phe-NH2] | – | – | 4.71 ± 0.62 | – | – | – | −2.69 ± 0.06 | – | – | – | – | – | – | specific | > 25 | more than 8 fold
CCCC[C@@H](C(=O)N[C@@H](CC(=O)O)C(=O)N[C@@H](Cc1cccc2ccccc12)C(N)=O)N(C)C(=O)[C@H](Cc1c[nH]c2ccccc12)NC(=O)CNC(=O)[C@H](Cc1ccc(O)cc1)NC(=O)[C@H](C)NC(=O)[C@@H](CCC(=O)O)NC(=O)CN1CCN(CC(=O)O)CCN(CC(=O)O)CCN(CC(=O)O)CC1 [DOTA-MGS5, DOTA-glu^6-Ala^7-Tyr^8-Gly^9-Trp^10-(N-Me)Nle^11-Asp^12-1-Nal^13-NH2, reference compound] | 3.9 ± 1 | 3.6 ± 0.4 | – | – | – | – | – | 87.6 | 87.6 | 82.0 | 91.9 | 1480 ± 329 | 11 ± 1.15 | – | – | –
CCCC[C@H](NC(=O)[C@H](Cc1c[nH]c2ccccc12)NC(=O)CNC(=O)[C@H](Cc1ccc(O)cc1)NC(=O)[C@H](C)NC(=O)CC[C@@H](NC(=O)CC[C@@H](NC(=O)CC[C@@H](NC(=O)CC[C@@H](NC(=O)CC[C@@H](NC(=O)CC[C@@H](NC(=O)[C@@H](CNC(=O)c1ccc([Si](F)(C(C)(C)C)C(C)(C)C)cc1)NC(=O)CCC(C(=O)O)N1CCN(CC(=O)O)CCN(CC(=O)O)CCN(CC(=O)O)CC1)C(=O)O)C(=O)O)C(=O)O)C(=O)O)C(=O)O)C(=O)O)C(=O)N[C@@H](CC(=O)O)C(=O)N[C@@H](Cc1ccccc1)C(N)=O (some centres unmarked) [DOTAGA-MG-SiFA-19, DOTAGA-dap(SiFA)-γ-F11N] | – | – | – | – | – | – | −2.54 ± 0.05 | – | – | – | – | – | – | specific | – | –
